B1: Retinoblastoma-associated protein (Homo sapiens), P06400 (parent)
chain: MPPKTPRKTAATAAAAAAEPPAPPPPPPPEEDPEQDSGPEDLPLVRLEFEETEEPDFTALCQKLKIPDHVRERAWLTWEKVSSVDGVLGGYIQKKKELWGICIFIAAVDLDEMSFTFTELQKNIEISVHKFFNLLKEIDTSTKVDNAMSRLLKKYDVLFALFSKLERTCELIYLTQPSSSISTEINSALVLKVSWITFLLAKGEVLQMEDDLVISFQLMLCVLDYFIKLSPPMLLKEPYKTAVIPINGSPRTPRRGQNRSARIAKQLENDTRIIEVLCKEHECNIDEVKNVYFKNFIPFMNSLGLVTSNGLPEVENLSKRYEEIYLKNKDLDARLFLDHDKTLQTDSIDSFETQRTPRKSNLDEEVNVIPPHTPVRTVMNTIQQLMMILNSASDQPSENLISYFNNCTVNPKESILKRVKDIGYIFKEKFAKAVGQGCVEIGSQRYKLGVRLYYRVMESMLKSEEERLSIQNFSKLLNDNIFHMSLLACALEVVMATYSRSTSQNLDSGTDLSFPWILNVLNLKAFDFYKVIESFIKAEGNLTREMIKHLERCEHRIMESLAWLSDSPLFDLIKQSKDREGPTDHLESACPLNLPLQNNHTAADMYLSPVRSPKKKGSTTRVNSTANAETQATSAFQTQKPLKSTSLSLFYKKVYRLAYLRLNTLCERLLSEHPELEHIIWTLFQHTLQNEYELMRDRHLDQIMMCSMYGICKVKNIDLKFKIIVTAYKDLPHAVQETFKRVLIKEEEYDSIIVFYNSVFMQRLKTNILQYASTRPPTLSPIPHIPRSPYKFPSSPLRIPGGNIYISPLKSPYKISEGLPTPTKMTPRSRILVSIGESFGTSEKFQKINQMVCNSDRVLKRSAEGSNPPKPLKKLRFDIEGSDEADGSKHLPGESKFQQKLAEMTSTRTRMQKQKMNDSMDTSNKEEK
partner: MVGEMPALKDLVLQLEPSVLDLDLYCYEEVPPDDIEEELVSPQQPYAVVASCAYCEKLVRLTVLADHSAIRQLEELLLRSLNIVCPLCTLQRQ
B2: Protein E7 (Human papillomavirus type 1a), P06465 (parent)
chain: B1 partner
partner: B1 chain
B3: Protein E7 (Human papillomavirus type 1a), P06465 (parent)
chain: B1 partner

Variants of: B1
Details: with ve7_hpv1 E7, P06465

| Variant | effect of a mutation on the interaction |
| --- | --- |
| K810E;K814E;K824E | disrupting interaction |

Variants of: B2
Details: with rb_human RB1, P06400

| Variant | effect of a mutation on the interaction |
| --- | --- |
| E74R;E75R | decreasing interaction |

Variants of: B3
Details: with e2f3_human E2F3, O00716
Sequence of e2f3_human E2F3, O00716 (O00716 whole entry): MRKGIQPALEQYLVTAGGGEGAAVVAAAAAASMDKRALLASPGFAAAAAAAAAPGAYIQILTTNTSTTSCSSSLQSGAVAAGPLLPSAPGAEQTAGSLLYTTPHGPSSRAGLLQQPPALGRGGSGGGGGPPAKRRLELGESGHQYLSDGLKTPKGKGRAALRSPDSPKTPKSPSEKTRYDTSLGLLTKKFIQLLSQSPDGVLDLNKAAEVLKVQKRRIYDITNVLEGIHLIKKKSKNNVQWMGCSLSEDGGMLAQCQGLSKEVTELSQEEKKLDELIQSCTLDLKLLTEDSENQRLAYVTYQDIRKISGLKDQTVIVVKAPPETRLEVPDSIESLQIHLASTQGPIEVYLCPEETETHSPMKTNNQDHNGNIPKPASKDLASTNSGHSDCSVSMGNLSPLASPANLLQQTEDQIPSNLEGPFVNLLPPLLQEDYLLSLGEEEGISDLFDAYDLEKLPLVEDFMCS

| Variant | effect of a mutation on the interaction |
| --- | --- |
| R60E | decreasing interaction |
| L61E | decreasing interaction |

From IntAct's records for PubMed 16249186
